Measurements published in patent US20260049138A1 (Chugai, published 2026).
Substitutions are numbered along the chain they refer to. Names and notes keep the numbering of the source.

B1: GLS3000 Y32A one-arm antibody (antibody, human IgG1, kappa, L234A L235A, N297A, name in Kabat numbering)
heavy: QVQLVESGGGVVQPGRSLRLSCAASGFTFSNAWMHWVRQAPGKGLEWVAQIKAKSNNYATYYAESVKGRFTISRDDSKNSLYLQMNSLKTEDTAVYYCRYVHYGAYYGVDAWGQGTTVTVSSASTKGPSVFPLAPSSKSTSGGTAALGCLVKDYFPEPVTVSWNSGALTSGVHTFPAVLQSSGLYSLSSVVTVPSSSLGTQTYICNVNHKPSNTKVDKKVEPKSCDKTHTCPPCPAPEAAGGPSVFLFPPKPKDTLMISRTPEVTCVVVDVSHEDPEVKFNWYVDGVEVHNAKTKPREEQYASTYRVVSVLTVLHQDWLNGKEYKCKVSNKALPAPIEKTISKAKGQPREPQVYTLPPSRCELTKNQVSLSCAVKGFYPSDIAVEWESNGQPENNYKTTPPVLDSDGSFFLVSKLTVDKSRWQQGNVFSCSVMHEALHNHYTQKSLSLSPDYKDDDDK
chain: EPKSSDKTHTCPPCPAPELLGGPSVFLFPPKPKDTLMISRTPEVTCVVVDVSHEDPEVKFNWYVDGVEVHNAKTKPREEQYNSTYRVVSVLTVLHQDWLNGKEYKCKVSNKALPAPIEKTISKAKGQPREPQVCTLPPSRDELTKNQVSLWCLVKGFYPSDIAVEWESNGQPENNYKTTPPVLDSDGSFFLYSKLTVDKSRWQQGNVFSCSVMHEALHNRYTQKSLSLSP
light: DIVMTQSPLSLPVTPGEPASISCRSSQSLVHSNRNTALHWYQQKPGQAPRLLIYKVSNRFSGVPDRFSGSGSGTDFTLKISRVEAEDVGVYYCGQGTQVPYTFGQGTKLEIKRTVAAPSVFIFPPSDEQLKSGTASVVCLLNNFYPREAKVQWKVDNALQSGNSQESVTEQDSKDSTYSLSSTLTLSKADYEKHKVYACEVTHQGLSSPVTKSFNRGEC
B2: CE115HA000 H35A one-arm antibody (antibody, human IgG1, kappa, L234A L235A, N297A, name in Kabat numbering)
heavy: B1 heavy with H35A
chain: B1 chain
light: B1 light with A37Y
B3: GLS3000 Q45E one-arm antibody (antibody)
chain 1: B1 light with A37Y, R50E
chain 2: B1 heavy
chain 3: B1 chain
B4: CE115HA000 A99L one-arm antibody (antibody, human IgG1, kappa, L234A L235A, N297A, name in Kabat numbering)
heavy: B1 heavy with A105L
chain: B1 chain
light: B1 light with A37Y
B5: CE115HA000 A56N one-arm antibody (antibody, human IgG1, kappa, L234A L235A, N297A, name in Kabat numbering)
heavy: B1 heavy with A59N
chain: B1 chain
light: B1 light with A37Y
B6: CE115HA000 A56G one-arm antibody (antibody, human IgG1, kappa, L234A L235A, N297A, name in Kabat numbering)
heavy: B1 heavy with A59G
chain: B1 chain
light: B1 light with A37Y
B7: CE115HA000 A99D one-arm antibody (antibody, human IgG1, kappa, L234A L235A, N297A, name in Kabat numbering)
heavy: B1 heavy with A105D
chain: B1 chain
light: B1 light with A37Y
B8: CE115HA000 A52aY one-arm antibody (antibody, human IgG1, kappa, L234A L235A, N297A, name in Kabat numbering)
heavy: B1 heavy with A53Y
chain: B1 chain
light: B1 light with A37Y
B9: GLS3000 Y96H one-arm antibody (antibody, human IgG1, kappa, L234A L235A, N297A, name in Kabat numbering)
heavy: B1 heavy
chain: B1 chain
light: B1 light with A37Y, Y101H
B10: GLS3000 Y96D one-arm antibody (antibody, human IgG1, kappa, L234A L235A, N297A, name in Kabat numbering)
heavy: B1 heavy
chain: B1 chain
light: B1 light with A37Y, Y101D
B11: GLS3000 Y32F one-arm antibody (antibody, human IgG1, kappa, L234A L235A, N297A, name in Kabat numbering)
heavy: B1 heavy
chain: B1 chain
light: B1 light with A37F
B12: CE115HA000 A52aP one-arm antibody (antibody, human IgG1, kappa, L234A L235A, N297A, name in Kabat numbering)
heavy: B1 heavy with A53P
chain: B1 chain
light: B1 light with A37Y
B13: CE115HA000 A99K one-arm antibody (antibody, human IgG1, kappa, L234A L235A, N297A, name in Kabat numbering)
heavy: B1 heavy with A105K
chain: B1 chain
light: B1 light with A37Y
B14: GLS3000 Y96E one-arm antibody (antibody, human IgG1, kappa, L234A L235A, N297A, name in Kabat numbering)
heavy: B1 heavy
chain: B1 chain
light: B1 light with A37Y, Y101E
B15: CE115HA000 A56D one-arm antibody (antibody, human IgG1, kappa, L234A L235A, N297A, name in Kabat numbering)
heavy: B1 heavy with A59D
chain: B1 chain
light: B1 light with A37Y
B16: CE115HA000 A56Q one-arm antibody (antibody, human IgG1, kappa, L234A L235A, N297A, name in Kabat numbering)
heavy: B1 heavy with A59Q
chain: B1 chain
light: B1 light with A37Y
B17: CE115HA000 A56L one-arm antibody (antibody, human IgG1, kappa, L234A L235A, N297A, name in Kabat numbering)
heavy: B1 heavy with A59L
chain: B1 chain
light: B1 light with A37Y
B18: GLS3000 Y32D one-arm antibody (antibody, human IgG1, kappa, L234A L235A, N297A, name in Kabat numbering)
heavy: B1 heavy
chain: B1 chain
light: B1 light with A37D
B19: CE115HA000 A52aV one-arm antibody (antibody, human IgG1, kappa, L234A L235A, N297A, name in Kabat numbering)
heavy: B1 heavy with A53V
chain: B1 chain
light: B1 light with A37Y
B20: CE115HA000 A56K one-arm antibody (antibody, human IgG1, kappa, L234A L235A, N297A, name in Kabat numbering)
heavy: B1 heavy with A59K
chain: B1 chain
light: B1 light with A37Y
B21: CE115HA000 A52aE one-arm antibody (antibody, human IgG1, kappa, L234A L235A, N297A, name in Kabat numbering)
heavy: B1 heavy with A53E
chain: B1 chain
light: B1 light with A37Y
B22: CE115HA000 A32Y one-arm antibody (antibody, human IgG1, kappa, L234A L235A, N297A, name in Kabat numbering)
heavy: B1 heavy with A32Y
chain: B1 chain
light: B1 light with A37Y
B23: CE115HA000 A56Y one-arm antibody (antibody, human IgG1, kappa, L234A L235A, N297A, name in Kabat numbering)
heavy: B1 heavy with A59Y
chain: B1 chain
light: B1 light with A37Y
B24: CE115HA000 A52aD one-arm antibody (antibody, human IgG1, kappa, L234A L235A, N297A, name in Kabat numbering)
heavy: B1 heavy with A53D
chain: B1 chain
light: B1 light with A37Y
B25: CE115HA000 A60D one-arm antibody (antibody, human IgG1, kappa, L234A L235A, N297A, name in Kabat numbering)
heavy: B1 heavy with A63D
chain: B1 chain
light: B1 light with A37Y
B26: GLS3000 Y96F one-arm antibody (antibody, human IgG1, kappa, L234A L235A, N297A, name in Kabat numbering)
heavy: B1 heavy
chain: B1 chain
light: B1 light with A37Y, Y101F
B27: GLS3000 Y96L one-arm antibody (antibody, human IgG1, kappa, L234A L235A, N297A, name in Kabat numbering)
heavy: B1 heavy
chain: B1 chain
light: B1 light with A37Y, Y101L
B28: CE115HA000 A52aS one-arm antibody (antibody, human IgG1, kappa, L234A L235A, N297A, name in Kabat numbering)
heavy: B1 heavy with A53S
chain: B1 chain
light: B1 light with A37Y
B29: GLS3000 Y32P one-arm antibody (antibody, human IgG1, kappa, L234A L235A, N297A, name in Kabat numbering)
heavy: B1 heavy
chain: B1 chain
light: B1 light with A37P
B30: CE115HA000 A52aG one-arm antibody (antibody, human IgG1, kappa, L234A L235A, N297A, name in Kabat numbering)
heavy: B1 heavy with A53G
chain: B1 chain
light: B1 light with A37Y
B31: CE115HA000 A99F one-arm antibody (antibody, human IgG1, kappa, L234A L235A, N297A, name in Kabat numbering)
heavy: B1 heavy with A105F
chain: B1 chain
light: B1 light with A37Y
B32: CE115HA000 A60E one-arm antibody (antibody, human IgG1, kappa, L234A L235A, N297A, name in Kabat numbering)
heavy: B1 heavy with A63E
chain: B1 chain
light: B1 light with A37Y

Columns and labels:
[1] = target: T1, CD3ε homodimer protein (human, UniProt P07766 23-126, limits assumed); test: SPR Biacore T200, CD3ε homodimer on chip;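 further: Light-chain single-residue variant antibodies injected over amine-coupled CD3ε homodimer on a CM4 chip at 25 °C, bound amount divided by that of the GLS3000-containing antibody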
T1 construct: also called CD3 (CD3ε)

[2] = target: T2, CD3ε homodimer protein (human, UniProt P07766 23-126, limits assumed, sulfo-tag or biotin label in the ECL assays; amine-coupled to the chip in SPR); test: SPR Biacore T200; CD3ε homodimer on CM4 chip;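 further: Single-residue variant antibodies injected as analyte over CD3ε homodimer immobilized by amine coupling, run at 25 °C in HBS-EP+ buffer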
T2 construct: also called human CD3ε homodimer protein; CD3 (CD3ε)
T2 sequence (P07766 23-126 limits assumed): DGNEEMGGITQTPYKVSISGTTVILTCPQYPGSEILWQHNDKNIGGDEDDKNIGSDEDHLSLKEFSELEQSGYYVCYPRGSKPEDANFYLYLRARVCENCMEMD

T1 sequence (P07766 23-126 limits assumed): as above

Binder	ratio of amount bound vs unaltered GLS3000 [1]	ratio of amounts bound Z=Y/X (altered form / CE115HA000) [2]
B1	0.24	
B2		0.17
B3	0.75	
B4		1.13
B5		0.67
B6		0.61
B7		0.28
B8		0.31
B9	0.23	
B10	0.17	
B11	0.29	
B12		0.15
B13		1.48
B14	0.17	
B15		0.51
B16		0.76

Binder	ratio of amount bound vs unaltered GLS3000 [1]	ratio of amounts bound Z=Y/X (altered form / CE115HA000) [2]
B17		0.8
B18	0.23	
B19		0.52
B20		1.35
B21		0.57
B22		0.33
B23		0.66
B24		1.34
B25		0.99
B26	1.17	
B27	0.32	
B28		1.05
B29	0.24	
B30		0.81
B31		1.43
B32		0.94
